From CN114560934A

B1: β-BGT单克隆抗体株3B10B7 (antibody)
VH: LTMNFGLSWVFLVLTLKGVKCVVQLLESGRGLVKPGGSLKLSCAASGFAFSTYDTSWVRQTPEKRLEWVTYTSRGAGNTYYPDTVKGRFTISRDNAKNTLYVQMSSLKSEDTAMYYCARQSAWSLPIDYWGQGTLVTVSAAKTTPPSVYPLAPVCGG
VL: DIVMTQTPASLAVSLGQRATISYRTSKRVTTSGYSYMHWNQQKPGQPPRLLIYLASILESGVPARFSGSGSGTDFTLNIHPVEEEDAATYYCQHISELIRSEGGPSWKSNGLMLHQLYP
B2: β-BGT单克隆抗体株2B10E7 (antibody)
VH: LTMDFGLSWVFLVLTLKGVKCEVQLVESGGGLVKPGGSLKLSCAASGFAFSTSDISWVRQTPEKRLEWVTYISNGAGNTYNPDTDKGTFTISRDNAKNTLYVQMSSLKSEDTAMYYCARHNASSLQFAYWGQGTLVTVSAVKTTPPSVYPLAPVCGD
VL: DIVLTQSPASLAVSLGQRATISYRDSKSVSRSGYSYMHWNQQKPGQPPRLLIYLVSYLESGVPARFSGSGSGTDFTLNIHPVEEEDAATYYCQHTRELTRSEGGPSWKLNGLMLHQLYP

Target: β-银环蛇毒素 (银环蛇) (UniProt P00617)

Binder	检测限 [ng/mL]
B1	20
B2	20
